Experimental data from PMC12718150.

Legend:
[1] = target: 2-hydroxy-hept-2,4-diene-1,7-dioate (HHDD) isomerase (HHDDI) from Acinetobacter baumannii TH (Acinetobacter baumannii TH); test: SEC; single purified enzyme (0.5-1.0 mg/ml) on ENrich SEC650 (10 x 300 mm), buffer G (50 mM HEPES, pH 7.0, 150 mM NaCl), 0.5 ml/min, 4 °C; native MW from a calibration curve of protein standards against subunit MW
[2] = target: 2-hydroxy-hept-2,4-diene-1,7-dioate (HHDD) isomerase (HHDDI) from Acinetobacter baumannii TH (Acinetobacter baumannii TH)
[3] = target: 2-hydroxy-hept-2,4-diene-1,7-dioate (HHDD) isomerase (HHDDI) from Acinetobacter baumannii TH (Acinetobacter baumannii TH); test: SEC; ENrich SEC650 gel filtration column, FPLC; OPETD and HHDDI mixed at 1:1 molar ratio (0.5 and 1.0 mg/ml), incubated on ice in buffer G (50 mM HEPES, pH 7.0, 150 mM NaCl); 0.5 ml/min, 4 °C; native MW from a calibration curve

Substance | stoichiometry N [1] | tri-acid decarboxylation activity of the OPETD-HHDDI complex against HHDDI alone (synthesized tri-acid substrate, LC-MS/MS of the di-acid) [2] | tri-acid decarboxylation activity of the OPETD-HHDDI complex against OPETD alone (synthesized tri-acid substrate, LC-MS/MS of the di-acid) [2] | stoichiometry N (OPETD per HHDDI) [3]
2-hydroxy-hept-2,4-diene-1,7-dioate (HHDD) isomerase (HHDDI) from Acinetobacter baumannii TH (enzyme) | 2 |  |  | 
5-oxo-pent-3-ene-1,2,5-tricarboxylate (OPET) decarboxylase (OPETD) from Acinetobacter baumannii TH (enzyme) |  | 12 fold | 60 fold | 1
